Assay results reported in US20200024330A1.

How the values were obtained:
Assay in all cases: cell-based or functional assay
[1] = target: HIV-1 Env of isolate APV-17 (pseudovirus) (HIV-1 isolate APV-17, subtype B)
[2] = target: HIV-1 Env of isolate MGRM-AE-002 (CRF01_AE), on pseudovirus (HIV-1)
[3] = target: HIV-1 Env of isolate MGRM-AG-005 (CRF_AG), on pseudovirus (HIV-1)
[4] = target: HIV-1 Env of isolate MGRM-AG-009 (CRF_AG), on pseudovirus (HIV-1)
[5] = target: HIV-1 Env of isolate MGRM-AG-011 (CRF_AG), on pseudovirus (HIV-1)
[6] = target: HIV-1 Env of isolate MGRM-C-007 (HIV-1)
[7] = target: HIV-1 Env of isolate MGRM-C-009 (HIV-1)
[8] = target: HIV-1 Env of isolate MGRM-C-015 (HIV-1)
[9] = target: HIV-1 Env of isolate MGRM-D-002 (HIV-1)
[10] = target: HIV-1 Env of isolate MGRM-F1-022 (subtype F), on pseudovirus (HIV-1)
[11] = target: HIV-1 JR-CSF Env D185A (HIV-1 (isolate JR-CSF)) (UniProt P20871)
[12] = target: HIV-1 JR-CSF Env D477A (HIV-1 (isolate JR-CSF)) (UniProt P20871)
[13] = target: HIV-1 JR-CSF Env G471A (HIV-1 (isolate JR-CSF)) (UniProt P20871)
[14] = target: HIV-1 JR-CSF Env N156A (HIV-1 (isolate JR-CSF)) (UniProt P20871)
[15] = target: HIV-1 JR-CSF Env R166A (HIV-1 (isolate JR-CSF)) (UniProt P20871)
[16] = target: HIV-1 JR-CSF Env V120A (HIV-1 (isolate JR-CSF)) (UniProt P20871)
[17] = target: HIV-1 JR-CSF Env V182A (HIV-1 (isolate JR-CSF)) (UniProt P20871)
[18] = target: HIV-1 JR-CSF Env Y177A (HIV-1 (isolate JR-CSF)) (UniProt P20871)
[19] = target: HIV-1 Env of isolate 92UG046 (subtype D) (HIV-1)
[20] = target: HIV-1 Env of isolate MG RM-D-001 (subtype D) (HIV-1)
[21] = target: HIV-1 Env of isolate MG RM-D-004 (subtype D) (HIV-1)
[22] = target: HIV-1 Env of isolate MGRM-C-005 (pseudovirus) (HIV-1 isolate MGRM-C-005, subtype C)
[23] = target: HIV-1 Env of isolate MGRM-C-013 (pseudovirus) (HIV-1 isolate MGRM-C-013, subtype C)
[24] = target: HIV-1 Env of isolate MGRM-C-019 (pseudovirus) (HIV-1 isolate MGRM-C-019, subtype C)
[25] = target: HIV-1 Env of isolate MGRM-C-025 (pseudovirus) (HIV-1 isolate MGRM-C-025, subtype C)
[26] = target: HIV-1 Env of isolate MGRM-F1-006 (subtype F) (HIV-1)
[27] = target: HIV-1 MGRM-Chronic-B-004 Env (pseudovirus) (HIV-1)
[28] = target: HIV-1 MGRM-Chronic-B-018 Env (pseudovirus) (HIV-1)
[29] = target: HIV-1 SF162 Env (pseudovirus) (HIV-1) (UniProt P19550)

Chain of 5329_C19 (PGT-136) (antibody) (VH): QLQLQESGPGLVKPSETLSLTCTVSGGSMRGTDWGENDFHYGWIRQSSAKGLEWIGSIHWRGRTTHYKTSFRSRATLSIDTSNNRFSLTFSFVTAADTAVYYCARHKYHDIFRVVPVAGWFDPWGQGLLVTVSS
Chain of 5329_C19 (PGT-136) (antibody) (VL): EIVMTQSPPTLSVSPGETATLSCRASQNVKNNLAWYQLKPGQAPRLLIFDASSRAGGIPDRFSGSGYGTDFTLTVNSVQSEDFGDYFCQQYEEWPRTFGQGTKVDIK
Chain of 5345_I01 (PGT-137) (antibody) (VH): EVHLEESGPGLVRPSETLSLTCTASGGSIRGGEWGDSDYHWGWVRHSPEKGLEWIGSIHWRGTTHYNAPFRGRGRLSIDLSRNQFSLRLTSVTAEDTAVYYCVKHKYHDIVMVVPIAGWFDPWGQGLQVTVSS
Chain of 5345_I01 (PGT-137) (antibody) (VL): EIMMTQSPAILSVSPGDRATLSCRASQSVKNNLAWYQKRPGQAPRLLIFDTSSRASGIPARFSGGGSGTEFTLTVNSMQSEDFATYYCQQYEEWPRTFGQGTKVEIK

Substance | IC50 (µg/mL) neutralization [1] | IC50, single-round pseudovirus neutralization [2] | IC50, single-round pseudovirus neutralization [3] | IC50, single-round pseudovirus neutralization [4] | IC50, single-round pseudovirus neutralization [5] | IC50 [6] | IC50 [7] | IC50 [8] | IC50 [9] | IC50, pseudovirus neutralization [10] | Fold IC50 increase relative to wild-type [11] | Fold IC50 increase relative to wild-type [12] | Fold IC50 increase relative to wild-type [13] | Fold IC50 increase relative to wild-type [14] | Fold IC50 increase relative to wild-type [15] | Fold IC50 increase relative to wild-type [16] | Fold IC50 increase relative to wild-type [17] | Fold IC50 increase relative to wild-type [18] | other results
5114_A19 (PGT-128) (antibody) | 0.016 µg/mL | 0.522 µg/mL | 0.037 µg/mL | 0.021 µg/mL | 3.93 µg/mL | 0.111 µg/mL | > 50 µg/mL | 0.196 µg/mL | 0.011 µg/mL | 4.54 µg/mL | 1.5 fold | 0.7 fold | 0.9 fold | 0.4 fold | 2.7 fold | 1.4 fold | 1.2 fold | 1.4 fold | 
5136_H01 (PGT-131) (antibody) | > 50 µg/mL | > 50 µg/mL | 1.04 µg/mL | > 50 µg/mL | > 50 µg/mL | > 50 µg/mL | > 50 µg/mL | 1.01 µg/mL | 11.2 µg/mL | > 50 µg/mL | 0.7 fold | 1 fold | 1.2 fold | 1 fold | 1.6 fold | 0.7 fold | 1.1 fold | 5.3 fold | 
5141_B17 (PGT-126) (antibody) |  |  |  |  |  |  |  |  |  |  | 1 fold | 1.1 fold | 1.2 fold | 1.8 fold | 1 fold | 0.7 fold | 1.4 fold | 0.9 fold | IC50 (µg/mL), pseudovirus neutralization [19]: > 50 µg/mL; IC50 (µg/mL), pseudovirus neutralization [20]: 0.084 µg/mL; IC50 (µg/mL), pseudovirus neutralization [21]: > 50 µg/mL; IC50 (µg/mL) neutralization [22]: 0.298 µg/mL; IC50 (µg/mL) neutralization [23]: > 50 µg/mL; IC50 (µg/mL) neutralization [24]: 0.005 µg/mL; IC50 (µg/mL) neutralization [25]: 0.786 µg/mL; IC50 (µg/mL), pseudovirus neutralization [26]: 0.078 µg/mL; IC50, pseudovirus neutralization [27]: 0.01 µg/mL; IC50, pseudovirus neutralization [28]: 0.052 µg/mL; IC50, pseudovirus neutralization [29]: 0.003 µg/mL
5145_B14 (PGT-127) (antibody) |  |  |  |  |  |  |  |  |  |  | 2 fold | 1.7 fold | 1.2 fold | 1.6 fold | 1.6 fold | 1.5 fold | 1.6 fold | 2.9 fold | IC50 (µg/mL), pseudovirus neutralization [19]: > 50 µg/mL; IC50 (µg/mL), pseudovirus neutralization [20]: 2.23 µg/mL; IC50 (µg/mL), pseudovirus neutralization [21]: > 50 µg/mL; IC50 (µg/mL) neutralization [22]: 0.57 µg/mL; IC50 (µg/mL) neutralization [23]: > 50 µg/mL; IC50 (µg/mL) neutralization [24]: 0.017 µg/mL; IC50 (µg/mL) neutralization [25]: > 50 µg/mL; IC50 (µg/mL), pseudovirus neutralization [26]: 7.17 µg/mL; IC50, pseudovirus neutralization [27]: 0.018 µg/mL; IC50, pseudovirus neutralization [28]: 1.9 µg/mL; IC50, pseudovirus neutralization [29]: 0.019 µg/mL
5147_N06 (PGT-130) (antibody) | 10.7 µg/mL | 1.53 µg/mL | 0.54 µg/mL | 9.46 µg/mL | > 50 µg/mL | > 50 µg/mL | > 50 µg/mL | 0.344 µg/mL | 0.869 µg/mL | > 50 µg/mL | 0.9 fold | 1.1 fold | 0.8 fold | 1.5 fold | 1.2 fold | 0.8 fold | 1.2 fold | 3.6 fold | 
5329_C19 (PGT-136) (antibody) | > 50 µg/mL | > 50 µg/mL | > 50 µg/mL | > 50 µg/mL | > 50 µg/mL | > 50 µg/mL | > 50 µg/mL | 11.1 µg/mL | > 50 µg/mL | 2.42 µg/mL |  |  |  |  |  |  |  |  | 
5343_B08 (PGT-135) (antibody) | > 50 µg/mL | > 50 µg/mL | > 50 µg/mL | > 50 µg/mL | > 50 µg/mL | > 50 µg/mL | > 50 µg/mL | 0.104 µg/mL | > 50 µg/mL | 0.964 µg/mL | 1.3 fold | 1.5 fold | 3 fold | 0.3 fold | 0.9 fold | 1.4 fold | 1.5 fold | 0.3 fold | 
5345_I01 (PGT-137) (antibody) | > 50 µg/mL | > 50 µg/mL | > 50 µg/mL | > 50 µg/mL | > 50 µg/mL | > 50 µg/mL | > 50 µg/mL | 1.98 µg/mL | > 50 µg/mL | 6.23 µg/mL |  |  |  |  |  |  |  |  | 
